Data as given in patent US20210107971A1 (UCB, published 2021).

Tests used:
[1] = biological target: recombinant full-length human alpha synuclein monomer (human, UniProt P37840 1-140); test: SPR, Biacore T200, as in Example 3; Fab injected;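 further: ligands amine-coupled on CM5 chip flow cells, HBS-EP+ running buffer, kinetic data fitted with 1:1 model allowing local bulk contribution and global Rmax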
Method: (§1) Interaction kinetics were determined by using surface plasmon resonance technology on a Biacore T200 instrument. Three different ligands including recombinant full-length human alpha synuclein monomer, purified recombinant human alpha synuclein fibrils, and purified recombinant mouse alpha synuclein fibrils, prepared as described herein, were each immobilized on three different flow cells of a CM5 chip surface using amine-coupling chemistry. The three ligands were prepared in 10 mM NaAc, pH 3.5, and immobilized onto separate flow cell surfaces to reach an immobilization level of about 30 response units (RU) for alpha synuclein monomer, about 40 RU for human alpha synuclein fibrils, and about 300 RU for mouse alpha synuclein fibrils respectively, at a flow rate of 10 μI/min. The buffer HBS-EP+(GE healthcare Bio-Sciences AB) was used as running buffer for both ligand immobilization and kinetics assay. […] The surface was regenerated by one injection of 50 mM HCl for 90 s at 10 μI/min, and another injection of 50 mM HCl for 60 s at 10 μI/min. The data were analyzed using the Biacore T200 evaluation software (version 3.0) using the bivalent analyte model with assumed no bulk contribution (RI=0) and global Rmax for IgG format, and 1:1 model with flexible bulk contribution (local RI) and global Rmax.

[2] = biological target: purified recombinant human alpha synuclein fibrils (human, UniProt P37840 1-140); test: SPR, Biacore T200, as in Example 3; Fab injected;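 further: ligands amine-coupled on CM5 chip flow cells, HBS-EP+ running buffer, kinetic data fitted with 1:1 model allowing local bulk contribution and global Rmax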
Method: as §1

Kd [1] [nM] | koff [1] [s⁻¹] | kon [1] [M⁻¹ s⁻¹] | Kd [2] [nM] | koff [2] [s⁻¹] | kon [2] [M⁻¹ s⁻¹] | Binder
16.9 | 0.17 | 1.22e+07 | 15.3 | 0.154 | 1.89e+07 | 6470 rabbit Fab with heavy chain mutation N99R (Fab, V domains shown) VH: QSVEESGGRLVTPGTPLTLTCTVSGIDLSSHDMYWVRQAPGKGLEYIGAIYASGSTYYASWAKGRFTISKTSTTVDLKMTSLTTEDTATYFCARIHYGRSGGLWGQGTLVTVSS VL: AIVMTQTPSSKSVAVGDTVTINCQASQSVYKNNYLAWFQQKPGQPPKQLIYGASTLASGVPSRFKGSGSGTQFTLTISDVVCDDAATYYCAGYKGGRNDGFAFGGGTEVVVKR
61.3 | 0.566 | 9.22e+06 | 25.3 | 0.134 | 5.27e+06 | 6470 rabbit Fab with heavy chain mutation N99W (Fab, V domains shown) VH: QSVEESGGRLVTPGTPLTLTCTVSGIDLSSHDMYWVRQAPGKGLEYIGAIYASGSTYYASWAKGRFTISKTSTTVDLKMTSLTTEDTATYFCARIHYGWSGGLWGQGTLVTVSS VL: AIVMTQTPSSKSVAVGDTVTINCQASQSVYKNNYLAWFQQKPGQPPKQLIYGASTLASGVPSRFKGSGSGTQFTLTISDVVCDDAATYYCAGYKGGRNDGFAFGGGTEVVVKR
15.2 | 0.0433 | 2.84e+06 | 7.1 | 0.0498 | 6.93e+06 | 6470 rabbit Fab with light chain mutation N33K (Fab, V domains shown) VH: QSVEESGGRLVTPGTPLTLTCTVSGIDLSSHDMYWVRQAPGKGLEYIGAIYASGSTYYASWAKGRFTISKTSTTVDLKMTSLTTEDTATYFCARIHYGNSGGLWGQGTLVTVSS VL: AIVMTQTPSSKSVAVGDTVTINCQASQSVYKNKYLAWFQQKPGQPPKQLIYGASTLASGVPSRFKGSGSGTQFTLTISDVVCDDAATYYCAGYKGGRNDGFAFGGGTEVVVKR
1130 | 0.0517 | 45600 | 49.6 | 0.286 | 5.75e+06 | 6470 rabbit Fab with heavy chain mutation S53N (Fab, V domains shown) VH: QSVEESGGRLVTPGTPLTLTCTVSGIDLSSHDMYWVRQAPGKGLEYIGAIYANGSTYYASWAKGRFTISKTSTTVDLKMTSLTTEDTATYFCARIHYGNSGGLWGQGTLVTVSS VL: AIVMTQTPSSKSVAVGDTVTINCQASQSVYKNNYLAWFQQKPGQPPKQLIYGASTLASGVPSRFKGSGSGTQFTLTISDVVCDDAATYYCAGYKGGRNDGFAFGGGTEVVVKR
1.9 | 0.0191 | 1.39e+07 | 1.4 | 0.013 | 9.2e+06 | 6470 rabbit Fab with heavy chain mutation S55N (Fab, V domains shown) VH: QSVEESGGRLVTPGTPLTLTCTVSGIDLSSHDMYWVRQAPGKGLEYIGAIYASGNTYYASWAKGRFTISKTSTTVDLKMTSLTTEDTATYFCARIHYGNSGGLWGQGTLVTVSS VL: AIVMTQTPSSKSVAVGDTVTINCQASQSVYKNNYLAWFQQKPGQPPKQLIYGASTLASGVPSRFKGSGSGTQFTLTISDVVCDDAATYYCAGYKGGRNDGFAFGGGTEVVVKR
 | 0.0799 | 1.92e+07 | 2.9 | 0.0289 | 9.98e+06 | 6470 rabbit Fab with light chain mutation N33R (Fab, V domains shown) VH: QSVEESGGRLVTPGTPLTLTCTVSGIDLSSHDMYWVRQAPGKGLEYIGAIYASGSTYYASWAKGRFTISKTSTTVDLKMTSLTTEDTATYFCARIHYGNSGGLWGQGTLVTVSS VL: AIVMTQTPSSKSVAVGDTVTINCQASQSVYKNRYLAWFQQKPGQPPKQLIYGASTLASGVPSRFKGSGSGTQFTLTISDVVCDDAATYYCAGYKGGRNDGFAFGGGTEVVVKR

The next lines start with the binder.

Binder | Kd [1] [nM] | koff [1] [s⁻¹] | kon [1] [M⁻¹ s⁻¹] | Kd [2] [nM] | koff [2] [s⁻¹] | kon [2] [M⁻¹ s⁻¹]
6470 rabbit Fab with heavy chain mutation H31K (Fab, V domains shown) VH: QSVEESGGRLVTPGTPLTLTCTVSGIDLSSKDMYWVRQAPGKGLEYIGAIYASGSTYYASWAKGRFTISKTSTTVDLKMTSLTTEDTATYFCARIHYGNSGGLWGQGTLVTVSS VL: AIVMTQTPSSKSVAVGDTVTINCQASQSVYKNNYLAWFQQKPGQPPKQLIYGASTLASGVPSRFKGSGSGTQFTLTISDVVCDDAATYYCAGYKGGRNDGFAFGGGTEVVVKR | 152 | 0.938 | 6.17e+06 | 46.7 | 0.423 | 9.06e+06
6470 rabbit Fab with heavy chain mutation N99H (Fab, V domains shown) VH: QSVEESGGRLVTPGTPLTLTCTVSGIDLSSHDMYWVRQAPGKGLEYIGAIYASGSTYYASWAKGRFTISKTSTTVDLKMTSLTTEDTATYFCARIHYGHSGGLWGQGTLVTVSS VL: AIVMTQTPSSKSVAVGDTVTINCQASQSVYKNNYLAWFQQKPGQPPKQLIYGASTLASGVPSRFKGSGSGTQFTLTISDVVCDDAATYYCAGYKGGRNDGFAFGGGTEVVVKR | 0.7 | 0.00745 | 1.33e+07 | 0.4 | 0.00401 | 6.2e+06
6470 rabbit Fab with heavy chain mutation N99Q (Fab, V domains shown) VH: QSVEESGGRLVTPGTPLTLTCTVSGIDLSSHDMYWVRQAPGKGLEYIGAIYASGSTYYASWAKGRFTISKTSTTVDLKMTSLTTEDTATYFCARIHYGQSGGLWGQGTLVTVSS VL: AIVMTQTPSSKSVAVGDTVTINCQASQSVYKNNYLAWFQQKPGQPPKQLIYGASTLASGVPSRFKGSGSGTQFTLTISDVVCDDAATYYCAGYKGGRNDGFAFGGGTEVVVKR | 1310 | 0.493 | 375000 | 42.4 | 0.425 | 1.03e+07
6470 rabbit Fab with heavy chain mutation H31R (Fab, V domains shown) VH: QSVEESGGRLVTPGTPLTLTCTVSGIDLSSRDMYWVRQAPGKGLEYIGAIYASGSTYYASWAKGRFTISKTSTTVDLKMTSLTTEDTATYFCARIHYGNSGGLWGQGTLVTVSS VL: AIVMTQTPSSKSVAVGDTVTINCQASQSVYKNNYLAWFQQKPGQPPKQLIYGASTLASGVPSRFKGSGSGTQFTLTISDVVCDDAATYYCAGYKGGRNDGFAFGGGTEVVVKR | 1660 | 0.44 | 265000 | 62.3 | 0.373 | 5.98e+06
6470 rabbit Fab with heavy chain mutation N99K (Fab, V domains shown) VH: QSVEESGGRLVTPGTPLTLTCTVSGIDLSSHDMYWVRQAPGKGLEYIGAIYASGSTYYASWAKGRFTISKTSTTVDLKMTSLTTEDTATYFCARIHYGKSGGLWGQGTLVTVSS VL: AIVMTQTPSSKSVAVGDTVTINCQASQSVYKNNYLAWFQQKPGQPPKQLIYGASTLASGVPSRFKGSGSGTQFTLTISDVVCDDAATYYCAGYKGGRNDGFAFGGGTEVVVKR | 23.9 | 0.189 | 7.89e+06 | 20.7 | 0.207 | 1.58e+07
6470 rabbit Fab with heavy chain mutation H31Q (Fab, V domains shown) VH: QSVEESGGRLVTPGTPLTLTCTVSGIDLSSQDMYWVRQAPGKGLEYIGAIYASGSTYYASWAKGRFTISKTSTTVDLKMTSLTTEDTATYFCARIHYGNSGGLWGQGTLVTVSS VL: AIVMTQTPSSKSVAVGDTVTINCQASQSVYKNNYLAWFQQKPGQPPKQLIYGASTLASGVPSRFKGSGSGTQFTLTISDVVCDDAATYYCAGYKGGRNDGFAFGGGTEVVVKR | 23.1 | 0.185 | 8e+06 | 12.4 | 0.0972 | 7.83e+06
